Earlier results, collected in publication PMC2947981.
pKd, pKi: −log10 of the molar value. Where “and” joins values, the source holds several entries; their conditions need not be identical. Equal entries are not always repeated. Where two headings read alike, the source gives them in different places. Values belong to the substance of their own block, whether it stands above or below them.

Experiments:
[1] = biological target: Factor VIIIa A2 A2 (Homo sapiens) (UniProt P00451)
TFPI (Homo sapiens) [2] = biological target: TFPI (Homo sapiens) (UniProt P10646)
Sequence of UniProt P10646 (P10646 29-304): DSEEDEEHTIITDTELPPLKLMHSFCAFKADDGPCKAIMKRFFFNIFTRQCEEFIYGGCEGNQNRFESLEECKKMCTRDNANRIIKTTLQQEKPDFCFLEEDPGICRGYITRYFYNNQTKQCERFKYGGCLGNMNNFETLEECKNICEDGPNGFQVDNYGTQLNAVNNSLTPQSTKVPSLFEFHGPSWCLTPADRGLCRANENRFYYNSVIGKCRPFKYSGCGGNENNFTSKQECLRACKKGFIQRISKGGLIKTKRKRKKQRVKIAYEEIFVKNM

[3] = biological target: Thrombin (IIa) (Homo sapiens) (UniProt P00734)
[4] = biological target: Corn trypsin inhibitor (CTI) (Zea mays) (UniProt P01088)
Sequence of UniProt P01088 (P01088 29-138): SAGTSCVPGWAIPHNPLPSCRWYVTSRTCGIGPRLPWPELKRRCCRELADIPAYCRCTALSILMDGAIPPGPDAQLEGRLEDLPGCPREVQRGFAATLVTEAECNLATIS

[5] = biological target: Factor IXa (Homo sapiens) (UniProt P00740)
[6] = biological target: Factor IXa (Homo sapiens) (UniProt P00740); remark: listed apart in the source
[7] = biological target: Factor IXa (Homo sapiens) (UniProt P00740); remark: listed apart in the source
[8] = biological target: Factor VIIa (Homo sapiens) (UniProt P08709)
Sequence of UniProt P08709 (P08709 61-212, chain 1 of 2): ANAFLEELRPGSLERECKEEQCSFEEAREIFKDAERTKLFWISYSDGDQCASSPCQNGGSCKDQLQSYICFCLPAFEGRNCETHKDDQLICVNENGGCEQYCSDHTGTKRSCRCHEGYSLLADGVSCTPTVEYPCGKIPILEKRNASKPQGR
Sequence of UniProt P08709 (P08709 213-466, chain 2 of 2): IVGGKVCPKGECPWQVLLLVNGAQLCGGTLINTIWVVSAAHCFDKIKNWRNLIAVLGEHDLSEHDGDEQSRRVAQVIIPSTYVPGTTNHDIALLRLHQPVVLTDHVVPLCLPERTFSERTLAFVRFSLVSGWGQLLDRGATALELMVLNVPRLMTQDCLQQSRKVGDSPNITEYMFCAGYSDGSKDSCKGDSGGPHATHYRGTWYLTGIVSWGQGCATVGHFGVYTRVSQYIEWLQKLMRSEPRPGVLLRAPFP

[9] = biological target: Factor VIIIa (Homo sapiens) (UniProt P00451)
[10] = biological target: Factor VIIIa (Homo sapiens) (UniProt P00451); remark: listed apart in the source
[11] = biological target: Factor VIIIa (Homo sapiens) (UniProt P00451); remark: listed apart in the source
[12] = biological target: Factor VIIIa (Homo sapiens) (UniProt P00451); remark: listed apart in the source
Factor Va (Homo sapiens) [13] = biological target: Factor Va (Homo sapiens) (UniProt P12259)
Sequence of UniProt P12259 (P12259 29-737, chain 1 of 2): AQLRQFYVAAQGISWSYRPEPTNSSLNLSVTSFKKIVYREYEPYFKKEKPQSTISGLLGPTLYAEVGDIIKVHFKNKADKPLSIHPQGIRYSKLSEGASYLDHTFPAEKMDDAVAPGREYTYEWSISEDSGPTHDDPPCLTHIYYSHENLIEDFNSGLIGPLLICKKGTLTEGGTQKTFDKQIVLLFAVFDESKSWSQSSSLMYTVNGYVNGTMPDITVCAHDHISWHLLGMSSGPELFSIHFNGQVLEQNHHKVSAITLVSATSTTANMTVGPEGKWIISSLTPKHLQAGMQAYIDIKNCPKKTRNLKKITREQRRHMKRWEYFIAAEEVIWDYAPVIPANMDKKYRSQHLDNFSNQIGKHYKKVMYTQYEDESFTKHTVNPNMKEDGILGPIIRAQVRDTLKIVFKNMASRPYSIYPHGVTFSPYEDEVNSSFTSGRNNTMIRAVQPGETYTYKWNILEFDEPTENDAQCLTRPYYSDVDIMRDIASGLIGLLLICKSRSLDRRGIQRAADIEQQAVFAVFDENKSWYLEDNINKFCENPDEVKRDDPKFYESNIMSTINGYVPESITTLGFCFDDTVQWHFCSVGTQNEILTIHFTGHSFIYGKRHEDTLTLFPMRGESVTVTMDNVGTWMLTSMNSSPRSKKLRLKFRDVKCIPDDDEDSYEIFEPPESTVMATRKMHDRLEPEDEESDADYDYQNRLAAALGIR
Sequence of UniProt P12259 (P12259 1574-2224, chain 2 of 2): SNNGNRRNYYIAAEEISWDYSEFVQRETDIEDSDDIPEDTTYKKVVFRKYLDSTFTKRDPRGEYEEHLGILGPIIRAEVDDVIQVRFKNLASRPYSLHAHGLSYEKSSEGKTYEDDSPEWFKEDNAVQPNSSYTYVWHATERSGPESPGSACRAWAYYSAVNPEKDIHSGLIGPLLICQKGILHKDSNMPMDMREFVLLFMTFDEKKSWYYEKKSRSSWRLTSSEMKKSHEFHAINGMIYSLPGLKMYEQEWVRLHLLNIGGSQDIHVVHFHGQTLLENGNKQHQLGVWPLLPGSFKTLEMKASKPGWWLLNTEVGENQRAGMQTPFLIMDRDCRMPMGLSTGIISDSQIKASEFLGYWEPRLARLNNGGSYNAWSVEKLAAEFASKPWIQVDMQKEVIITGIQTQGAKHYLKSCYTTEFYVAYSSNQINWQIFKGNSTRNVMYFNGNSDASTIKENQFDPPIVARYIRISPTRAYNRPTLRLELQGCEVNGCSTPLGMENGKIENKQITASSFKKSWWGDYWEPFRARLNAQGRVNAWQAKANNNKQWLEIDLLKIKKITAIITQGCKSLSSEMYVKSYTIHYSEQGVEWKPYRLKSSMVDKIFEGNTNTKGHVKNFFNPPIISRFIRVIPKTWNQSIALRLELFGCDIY

TFPI (Homo sapiens) [14] = biological target: TFPI (Homo sapiens) (UniProt P10646); remark: listed apart in the source
Factor Va (Homo sapiens) [15] = biological target: Factor Va (Homo sapiens) (UniProt P12259); remark: listed apart in the source
TFPI (Homo sapiens) [16] = biological target: TFPI (Homo sapiens) (UniProt P10646); remark: listed apart in the source
TFPI (Homo sapiens) [17] = biological target: TFPI (Homo sapiens) (UniProt P10646); remark: listed apart in the source
[18] = biological target: Factor VIIIa2 A2 (Homo sapiens) (UniProt P00451)
Factor Xa (Homo sapiens) = Factor Xa (Homo sapiens) (UniProt P00742)

Sequence of Factor VIIIa (P00451 1668-2351): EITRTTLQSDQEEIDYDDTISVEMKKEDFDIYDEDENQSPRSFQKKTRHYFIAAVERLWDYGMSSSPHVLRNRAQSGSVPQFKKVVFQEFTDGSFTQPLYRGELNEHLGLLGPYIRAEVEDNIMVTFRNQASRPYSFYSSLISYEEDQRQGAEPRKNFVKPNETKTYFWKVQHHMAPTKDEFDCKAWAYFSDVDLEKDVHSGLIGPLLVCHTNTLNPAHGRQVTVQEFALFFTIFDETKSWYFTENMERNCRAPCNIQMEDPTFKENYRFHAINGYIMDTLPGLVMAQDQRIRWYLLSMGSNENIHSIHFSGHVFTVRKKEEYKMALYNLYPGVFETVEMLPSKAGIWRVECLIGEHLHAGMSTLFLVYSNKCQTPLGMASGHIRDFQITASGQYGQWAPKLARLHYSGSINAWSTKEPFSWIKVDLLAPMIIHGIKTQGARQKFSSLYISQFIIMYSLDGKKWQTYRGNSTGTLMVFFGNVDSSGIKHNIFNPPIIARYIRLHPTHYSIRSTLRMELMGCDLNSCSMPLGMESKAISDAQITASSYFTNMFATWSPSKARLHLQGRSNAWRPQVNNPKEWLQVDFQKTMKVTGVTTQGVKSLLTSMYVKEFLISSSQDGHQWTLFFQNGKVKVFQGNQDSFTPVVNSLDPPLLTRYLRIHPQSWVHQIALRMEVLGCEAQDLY

pKd [5]: 9.26
pKd [6]: 8.40
pKd [7]: 10.13
Substance: Factor VIIIa (from UniProt P00451)

pKd [9]: 6.45
pKd [10]: 9.26
pKd [11]: 8.40
pKd [12]: 10.13
Substance: Factor IXa (from UniProt P00740)

pKd [18]: 6.57
Substance: Factor VIIIa1-L A1-L (from UniProt P00451)

More lines, now with the values behind:

Substance: Factor VIIIa A1/A3-C1-C2 A1/A3-C1-C2 (from UniProt P00451)
pKd [1]: 6.59

Substance: TF-VIIa-Xa complex (from UniProt P13726)
pKd (TFPI (Homo sapiens) [2]): 12.47

Substance: Fibrin II (Fbn2) (from UniProt P02671)
pKd [3]: 5.00

Substance: Factor XIIa (from UniProt P00748)
pKi [4]: 7.62

Substance: GP1bα (from UniProt P07359)
pKd [8]: 7.70

Substance: Factor Xa (from UniProt P00742)
pKd (Factor Va (Homo sapiens) [13]): 10.52
pKi (TFPI (Homo sapiens) [14]): 10.07
pKd (Factor Va (Homo sapiens) [15]): 8.48 and 9.30
pKd (TFPI (Homo sapiens) [16]): 9.40
pKi (TFPI (Homo sapiens) [17]): 10.19

Substance: TF-VIIa complex (from UniProt P13726)
pKd (Factor Xa (Homo sapiens)): 6.07
